Reference: publication PMC4865400

Columns and labels:
[1] = target: SH2 domain of ABL1 kinase fused to the 434 phage cI repressor (UniProt P00519); assay: two-hybrid
[2] = target: toxin-binding region from T. ni cadherin (TnCAD-FL) (Trichoplusia ni); assay: BLI

Substance | fold transcriptional activation [1] | Kd [2]
wild-type HA4 monobody fused to RpoZ (designed binder) | > 200 fold | –
wild-type Cry1Ac, trypsin-activated (from UniProt P05068 1-1178) (natural protein) | – | > 1000 µM
